Experimental data taken from a protein production outcome set (Wang et al. 2014).

Assay: label from the status in PepcDB records
For “MTDNPFATPTAPVQPPAREVPATTQPYAFIAVLALVTCLSFAVSLGIQWYNDIGEIRQRFSEHLQLMAPHWFTGLVFYAAANLLVLHAYREKRQLVEFRPLALLLIGYGLLNLVCGMLAGIGLAPLTLPFYQWVTAQSSYGVWLMAFNEAMSWVYLLLGSLLPLGLVLLGSRVNSPRLAEGEEARVAAWQVALGAALCFATLCFKLMQFLPYALLRYDEPWLYGLYLSGVALPAALLFGAVCTRLPARLQRFAAGRALLLAVVAMLLWSVALLAVGGGLALLMILGLAPAGIGYTLLVALLGVGLLALLWPIGRLATRWCYADQLAA”, the protein production was “failed”. For “MTDREWPEYPNQSGGETVTGPESAQEEAASERGWEADPPSPASEECQSEEGSNWERTAQEAEEEVPGGQRGEDLGTLGQAQELQEAAPFFQEEGSEPSQTTETSGWKPGMESSEDSREEPDLPAESPESSGQELQEAAALSPEETQVPFQTENAWEPGAERPENPDGGESQEPVAERPSAQPYDQSPAFSRPAPQAPPPVWNPGWQASYRQAPQNYPYGQGQYQGGWHPQQRQVPPPYYGGTPYQAPNPYQNQAPYGYPGQAARNQGQPGYQESRWYPQQPAQPARTGSVPPPSQPPQKEAGELPDAKPPEKKRMNKKTKAFLWVIGAVLVLLGAAMVLYSVGLTSGWFGGETAEPPQASSSTPAPEDDQKLLEIEEIPQDGMMTPNQVYEKVKHSVVAVVTYGQGSDLTDSPISSGSGIVFSEDGYIVTNSHVIGDSNQYPVKMVFTGQDENEEDQEYPAQIVGYDKRTDIAVLKIDAAGLTPAEFADSDQLKVGDTVLSLGNPGVAGENFTNTLTKGMVSAVNRTVTMSSINMQYIQTDAAINPGSSGGALLNLYGQVVGINAAKITTTEIEGICFAIPTNIAKDVINDIVKNGYVSDRVRLGVTIRGLSSYEAEMYNVPQGLVIVGFSSDSEIPSKGAEIGDIITAINGVNTTSSNTLYNELEKFKAGEKVKLTIYRQASGSQRARTFEIEVTLLEARGETQSAVTPTPEAP”, the protein production was “failed”. For “MTDTNVLANSATDNQETTHFGFETVRKDEKVHKVAQVFHSVAAKYDIMNDLMSGGIHRLWKRFTIDCSGARPGQRILDLGGGTGDLTAKFSRIVGEKGHVILADINNSMLNVGRDKLRDSGVVGNVHYVQANAEELPFPDNYFDCITISFCLRNVTDKDKALRSMFRVLKPGGRLLVLEFSKPILEPLSKLYDTYSFHILPKMGQLIANDADSYRYLAESIRMHPDQETLKGMMEEAGFEQTTYYNLTGGIVALHRGYKFLEHHHHHH”, the protein production was “not failed”. With “MTDTQNRVAMGYIKGVFGIKGWLKIAANTEYSDSLLDYPEWHLVKDGKTISVTLEAGKVVNGELQVKFEGINDRDLAFSLRGYTIEIPREAFAPTEEDEYYWTDLVGMTVVNKDHTVLGKVSNLMETGANDVLMIDGEHGQILIPFVSQYIETVDTGSKTITADWGLDYLEHHHHHH” the protein production was “not failed”. With “MTEAGASIVVTVKNEGKNLRELLESIEKNDFTNFETVVVDDLSTDDTEDIVKSYRFTVYKRIACSRGEGRNIGVDLSRYGYILFTDGDAKVSEHWISGMVSALAAGNDAVIGNTLYTGKRRYMQERVKIFLEGIEVTAPSVNLAYRKDRFRQLGGFDPKFVTAEDIDLNIRAVKAGFRFATCDSCVVYAKVRENLASFLRQAYWNGYGRYQLEMKHPGITRNTRVRLGHNFFDFLHMVSGAAGYLSARISEGKQGRLEHHHHHH” the protein production was “not failed”. For “MTEDQAFWNAFAPDYAAAEQASRLPIAHDVIAWLRSTQLLPAHSAVDLAAGTGRYAVQMMPWVQELTLIDWSSAMLAFAKERMHQQADTKAQFIVADWRKLHKPLNADMLFVSQLPTLKPQDLKMLMNWASQTVVLNFQTAQSDALLEQAASLLGLQLPPVYQADPARMISFKVWLTAQRIPFQSHSLTYEIEEQTTLSDLLPDLATPIGLKTAASLAKAITGHENTHVQVTDRLTYTYTQLVWHVLEHHHHHH”, the protein production was “failed”. In the case of “MTEEAAAQQTPVPGMTGPRRAAVGFIFITIALDMLSLGMILPILPKLIESFSDDNTANAARIYGLFGTAWALMQLFASPILGGLSDRFGRRPVILLSNLGLGLDYVLMALAPSLWWLFVGRVISGITSASISTSFAYIADVTPAEKRAAVFGMVGAAFGLGFTFGPAIGGLLGGVDPRLPFWVAAALSLANTLYGLFVLPESLPRDRRSPFRWKSANPIGAVRLLSSNARLAALAVVEFCAEVAHVALPATFVLYTGYRYAWDQTTIGLALAFVGVCTTIVQGGLVGPAVKLLGERNAQIIGYGGGALGFLIYALAPSGTLFWIGIPVMTLWGIAGPATSGMMTRLVSPSQQGQLQGATTSVKSVAELIGPFLFTMIFAYFIDAGAPLQLPGAPFLLAGALLVVSVVIVAFASPAADSKQAPQAAPES”, the protein production was “failed”. For “MTEFALDTSTGITIIVLFGVFWVAFGYWLGRKNRSHEDFALAGRNVGFAFAAATAMATWVTSNTTLVAPQLTYQFGIWGMVGYSFAALGLVLFAPMAKRIKELLPNGYTSGDFVRLRYGNLAWLVFIIISVVYAFGWLISLGMAGGILLESLSGLDYHIGMTTILVICVGYTLFGGMRAVIATDFIQALIIIVGVSFIAYWIIDNVGLESIHSNLTSEHPQLLDMLFPAAVMFLFNNIFFGLGEIFHSNVWWSRALSFKKNVAYKAYLTGGLLWLPIPIVTGFIALAAPQLGIFPPSPDMIGPTVAAAVLGKAGAIIVFIVIFSALASSLDSLLAATSDLVTQDIFHKKLKPKASDKTLMRFNRSCILGLGVVTWLLCLPRVATLGALLNFAGAFVASTIWPIVLGLYHRRLTGTYAACAMGFGTAFGMLSYFVVGFYVAALVSCAVSGLICLVGIFRSSDKFDWDTLNEKEQSNANQ”, the protein production was “failed”. In the case of “MTEILPHVNDEVLPAEYELNQPEPEHCPGPESDMAGKSDACGGCANKEICESLPKGPDPDIPLITDNLSGIEHKILVLSGKGGVGKSTFAAMLSWALSADEDLQVGAMDLDICGPSLPHMLGCIKETVHESNSGWTPVYVTDNLATMSIQYMLPEDDSAIIWRGSKKNLLIKKFLKDVDWDKLDYLVIDTPPGTSDEHISINKYMRESGIDGALVVTTPQEVALLDVRKEIDFCKKAGINILGLVENMSGFVCPNCKGESQIFKATTGGGEALCKELGIKFLGSVPLDPRIGKSCDMGESFLDNYPDSPASSAVLNVVEALRDAVGDV”, the protein production was “failed”. With “MTEIQRLLSETIDDLNIREKRDNRPRFSISFIRKHPGLFIAMYAAWFATLAVMLQSETLVGSVWLLVVLFIAFNGFFFFDIAPRYHYNDIDVLDLRVCYNGEWYNTRFVPPTLIETILQSPQVDNEHKVQLQKMVARKGELSFYDIFTLARAEASR” the protein production was “failed”. For “MTEISYEAIAFEQSGPITRITLNRPDAANGMNDTMTRELADAARRADTSGAKVVVLTGSGRFFSAGGDLKAFSTAPSRGAFIKGVADDLHRAISSFARMDAVLITAVNGTAAGAGFSIAVTGDLVLAAESASFTMAYTKVGLSPDGSASYYLPRLVGMRRAQELMLTNRTLSATEAYEWGLVTEVVPDADLADRATKLAEQVAAGSAGSNGAVKSLLLSSLKNSLEEQMEAEGRFIAARADSADGREGVDAFLGKRRPEFA”, the protein production was “failed”. In the case of “MTEKKIDFKKEEKKFYAPKRKPERIFVPEMNFLMVDGKGDPDGEEYQKAVQSLYAIAYTIKMSKMGETRLDGYSDFVVPPLEGFWWSEGKFDLKDRDAWLWTSILRQPDFVTEEVLEWAKEVARKKKPDVDTSRVKLVRFEEGECVQMMHVGPFSEEVHTVAEMHQFMETEGLRNDTGAIRKHHEIYLSDPRKANPEKMKTILRLPVS”, the protein production was “not failed”. With “MTEKLIEQLEARINDLECQVAFQEQTIEDLNSALSQQQLQITKMQDQMKYVVGKVKNMDSSNMEDPANEPPPPHY” the protein production was “failed”. For “MTEKNTLKKSATLAAAGLVVAGALLAGCGESKATPMDDAYAGNSGETEKSQEEQSQSQSNGSDSSDGSDSGSSHNDPSTTTSDKKDTGNYKDGNYSINGQYGPVGEDSIDVHLTIKDGNVETVKIIGHPFTTISKNHQDDFAKAINGVVDGKPLKGLKVDKVAGASWTSDAFNKALEVARQEASIQE”, the protein production was “failed”. For “MTEKSQEPTAALDAEQVAAYLSQHPEFFVEHDELIPELRIPHQPGDAVSLVERQVRLLRERNIEMRHRLSQLMDVARENDRLFDKTRRLVLDLLDATSLEDVVSTVEDSLRHEFQVPYVSLILFSDSSVSVGRSVSSAEAHQAIGGLLSGGKTVCGVLRPHELAFLFGESDRDEIGSAAVVSLSFQGLHGVLAIGSPDPQHYKSSLGTLFLGYVAEVLARVLPRFSSPLRSVR”, the protein production was “not failed”. For “MTELTILLGLAAAGYGVSHWTQLPAIPFLLMGGLALNATGAVGDAGFVEDVLFLSVSILLFVAGTDLSLTRVGPFKKTAFVIGVAQFAGLAAAALGIAYGLDYALTDALYLGLALAASSTIVGVRLLQRRQQMFEPYGRTVLGALLLQDVIVVLLLPLLVRLPDGSAAVLGSLGGTIVLLVGVGVVMKGVVPLLLKRELDAETQLLAVLGVLFGFMGAAAWLDVPLFAAAFLAGVSLSGFPFSGIVHSEMQPLYDFFSALFFASLGVAAPQPAPVLFGHAALFAGAVLVLTPLIVAVVGAWAGLVAQSALESGLLLAQTSELSLVVGLQALVAGQIGGEVFSVIVLTTVFTMMLTPLLTSETVVWELVRWHPSRQSDVLSEVPSNHVLVVGGGRSARPLLRLLRESKYEAVVVDEDPTVVDRLRDQGVRCVRGDGSDRAVLLKAGGAQARIVVSLLRNPKAVESLLDYVGDTVPILVRVFEDHEAEWVEARGGTPIRFAHAASDAFMEWFRRAQSARSKQPPSGT”, the protein production was “failed”. In the case of “MTENIPKSVAAMIRQPRKISPFWLLPIVAFIIGALLFFQILKEQGETIKIRFNAGDGIVAGKTIVRYQGLQIGQVKKVYFVDDLKKVEVQAQINSEAKSVLREGTTFWLVKPSASIAGVSGLDALVSGNYITLAPGNGAITNHFVAQDEQPAATVTDGDLLVHLIASDLGSITIGASVYFRKVPVGNIANYRFTEDKQKVEIDVVINKKYAHLVKQNSRFWNISGLNANISFSGLAVNVDSLASVIQGAVSFDSPEDSTLAEQASRFDLYADLKSAQRGVDVNITVPAMTSLKVNETPVFYQNTQVGVLSFIEAMPIDNKEIERVEENAMLRGRLLIDPNYTHLFREQSTILLKEPKFNLNAEQLTNIGQLLRGVYFEVKAGNGLAKRTFTVEKESDYLLSRPDMLALTFFAPKAYGVEEGQGIYYNDVKIGELLKRTLSVDGVTLQGIIFPAYRYLVGENSKFMAIAHLDVAVGLDGLRVKAGSPSHWLQGGIRLLEGKVQGVAKKQYPLYKDIDNAQAGILSDIKQPTLTLSASELEGIDKGAVVLYRNYQIGEVLNVKPQSQKFDVEVYIEPAYRQLIGNKSRFWVESAIEAELSAKGLSIQSAPLMRTLRGAISIDNGGDKMDRTLYANRIKATANKTRISLIAKDASKLFKGMAIKYMGLTIGQIETLALQNAKKQIKLTAYIEAPYYSIIAKEGSCFTAISPEVTPSGVKNIDAVLQNYIDVEAGNGGLATEFNLIDTDTNKTTYANNFPIIVETSDARGIEVNAPVLYRGLQVGIVQRLQLSELADRIQIHLAIEKQYQHLIRNNTQFWAASGYTMDISLQGVSLNSGTMAQLLKGGIEFLTPSTRVVEPQAKPNRRFLLQRKIPAKALSWDQAIAE”, the protein production was “failed”. For “MTENPEEDNKVFNYWWLAHLVEVRLDAYLRTKKQADLEVAEKTYLHNKNRNGGTLIHDFYDDMLWNALAAYRLYKATGKSIYLEDAQLVWQDLVDTGWNDIMGGGFAWRRPQMYYKNTPVNAPFIILSCWLYNELNETKYLEWAMKTYEWQTKVLVREDGFVEDGINRLEDGTIDYEWKFTYNQGVYIGANLELYRITKEAKYLDTANKTAAISLKELTEDGIFKDEGNGGDEGLFKGIFYRYFTDLIEETANKTYRDFVLNSCQILVENAKLDGYLLMGMNWKEKPSGKIPYSAELSGMIALEMAAKLELEHHHHHH”, the protein production was “not failed”. In the case of “MTEPCYVMVDQRFDEFVDTARAPEQIVHGFAWTEGPVWLDGAPFFNDIANKRMMRWTKQACAEVALDNSEFANGNTLDGAGQVVSGEHAGRRVIRRPDPTDPSAVEVIAERSEGKRLNSPNEVVVRSDGSVWFTNPPYGINSDIEGYPAESEIGGCFVFCPDPDGTLHAVATEFDKPNELAFSPDECRLFVADSGAIRGAIFPGIDDDLPHHVRVFDVDGVTLSNGRVFAVVAPGAPDGFRVDHEGYVWTSALDGIHCLSPEGALIGKIWLPRQTSIICFGGPPGQTMFITSSDKVYRVESTRRDAAHALRDRERNAE”, the protein production was “failed”.
